Data: the Immune Epitope Database (IEDB)
One block for each sequence: values may come before it.

How the values were obtained:
HLA-A*02:01 [1] = experiment: IEDB peptide-MHC binding, purified MHC/competitive/radioactivity; ≥ and ≤ were set here for values at or beyond the usual limits of such assays
HLA-A*03:01 = experiment: IEDB peptide-MHC binding, purified MHC/direct/fluorescence; filed as Kd, often an IC50 or EC50 that approximates it; ≥ and ≤ were set here for values at or beyond the usual limits of such assays
HLA-B*48:01 = experiment: as above
HLA-A*69:01 [2] = experiment: as above
HLA-B*51:01 [3] = experiment: as above; details: source organism: Vibrio vulnificus CMCP6
HLA-B*18:01 [4] = experiment: as above
HLA-A*02:19 = experiment: as above; details: source organism: Vibrio vulnificus CMCP6
HLA-A*02:12 = experiment: as above; details: source organism: Vibrio vulnificus CMCP6
HLA-B*58:01 = experiment: as above
HLA-B*40:01 = experiment: as above
HLA-A*31:01 = experiment: as above
HLA-B*08:01 = experiment: as above
HLA-A*26:02 = experiment: as above
HLA-A*01:01 = experiment: as above
HLA-B*15:09 = experiment: as above
HLA-B*07:02 = experiment: as above
HLA-B*27:05 = experiment: as above
HLA-A*29:02 = experiment: as above; details: source organism: Vibrio vulnificus CMCP6
HLA-A*11:01 [5] = experiment: IEDB peptide-MHC binding, purified MHC/competitive/fluorescence; filed as Kd, often an IC50 or EC50 that approximates it; ≥ and ≤ were set here for values at or beyond the usual limits of such assays; details: source organism: Vibrio cholerae V52
HLA-A*02:01 [6] = experiment: as above
HLA-B*15:17 [7] = experiment: as above
HLA-B*39:01 [8] = experiment: as above
HLA-A*02:06 = experiment: as above; details: source organism: Vibrio cholerae V52
HLA-A*30:01 = experiment: as above; details: source organism: Vibrio cholerae V52
HLA-B*57:01 [9] = experiment: as above
HLA-B*15:01 [10] = experiment: as above
HLA-A*02:03 = experiment: as above; details: source organism: Human immunodeficiency virus 1
HLA-A*68:02 [11] = experiment: as above; details: source organism: Human immunodeficiency virus 1
HLA-A*11:01 [12] = experiment: IEDB peptide-MHC binding, purified MHC/direct/fluorescence; filed as Kd, often an IC50 or EC50 that approximates it; ≥ and ≤ were set here for values at or beyond the usual limits of such assays; details: source organism: Burkholderia mallei
HLA-A*02:01 [13] = experiment: as above; details: source organism: Burkholderia mallei
HLA-B*15:17 [14] = experiment: as above; details: source organism: Burkholderia mallei
HLA-B*39:01 [15] = experiment: as above; details: source organism: Burkholderia mallei ATCC 23344
HLA-A*68:02 [16] = experiment: as above; details: source organism: Burkholderia mallei
HLA-B*44:02 = experiment: as above; details: source organism: Burkholderia mallei
HLA-B*57:01 [17] = experiment: as above; details: source organism: Burkholderia mallei
HLA-B*15:01 [18] = experiment: as above; details: source organism: Burkholderia mallei
HLA-A*26:01 [19] = experiment: as above
HLA-C*08:02 = experiment: as above
HLA-B*46:01 = experiment: IEDB peptide-MHC binding, purified MHC/competitive/fluorescence; filed as Kd, often an IC50 or EC50 that approximates it; ≥ and ≤ were set here for values at or beyond the usual limits of such assays
HLA-B*27:03 = experiment: as above
HLA-A*69:01 [20] = experiment: as above; details: source organism: Mus musculus
HLA-B*51:01 [21] = experiment: as above
HLA-B*18:01 [22] = experiment: as above
HLA-A*26:01 [23] = experiment: as above
[24] = source organism: Vibrio cholerae
[25] = source organism: Vibrio vulnificus CMCP6
[26] = source organism: Vibrio cholerae V52
[27] = source organism: Burkholderia mallei
[28] = source organism: Burkholderia mallei ATCC 23344

IC50 (HLA-A*02:01 [1]; source organism: Homo sapiens): 1.98 µM
Sequence: RLPRIFCSC

Sequence: TTILGLLPM
Kd (HLA-A*03:01; [24]): ≥ 20 µM | Kd (HLA-B*48:01; [24]): ≥ 20 µM | Kd (HLA-A*69:01 [2]; [24]): 0.0016 µM | Kd (HLA-B*51:01 [3]): ≥ 20 µM | Kd (HLA-B*18:01 [4]; [24]): 0.012 µM | Kd (HLA-A*02:19): ≥ 20 µM | Kd (HLA-A*02:12): ≥ 20 µM | Kd (HLA-B*58:01; [25]): 0.329 µM | Kd (HLA-B*40:01; [24]): 0.189 µM | Kd (HLA-A*31:01; [24]): ≥ 20 µM | Kd (HLA-B*08:01; [25]): ≥ 20 µM | Kd (HLA-A*26:02; [25]): ≤ 0.001 µM | Kd (HLA-A*01:01; [24]): ≥ 20 µM | Kd (HLA-B*15:09; [25]): 7.7 µM | Kd (HLA-B*07:02; [25]): ≥ 20 µM | Kd (HLA-B*27:05; [24]): ≥ 20 µM | Kd (HLA-A*29:02): 0.016 µM | Kd (HLA-A*11:01 [5]): ≥ 20 µM | Kd (HLA-A*02:01 [6]; [26]): ≥ 20 µM | Kd (HLA-B*15:17 [7]; [26]): 0.0387 µM | Kd (HLA-B*39:01 [8]; [26]): 0.618 µM | Kd (HLA-A*02:06): 0.0057 µM | Kd (HLA-A*30:01): 0.677 µM | Kd (HLA-B*57:01 [9]; [26]): 3.58 µM | Kd (HLA-B*15:01 [10]; [26]): 0.308 µM

Sequence: IMDKNIIL
IC50 (HLA-A*02:01 [1]; source organism: Influenza A virus (A/Puerto Rico/8/1934(H1N1))): 21 µM

Sequence: SLSHYFTLV
IC50 (HLA-A*02:01 [1]; source organism: Trypanosoma cruzi): 0.0016 µM

IC50 (HLA-A*02:01 [1]; source organism: Homo sapiens): 0.192 µM
Sequence: ILCGTCLIV

Sequence: EELKSLYNTI
Kd (HLA-A*02:03): ≥ 20 µM | Kd (HLA-A*68:02 [11]): 1.78 µM

Sequence: FEIGNGDAG
Kd (HLA-A*03:01; [27]): ≥ 20 µM | Kd (HLA-B*48:01; [27]): ≥ 20 µM | Kd (HLA-A*11:01 [12]): ≥ 20 µM | Kd (HLA-A*02:01 [13]): ≥ 20 µM | Kd (HLA-B*15:17 [14]): ≥ 20 µM | Kd (HLA-A*69:01 [2]; [27]): ≥ 20 µM | Kd (HLA-B*39:01 [15]): ≥ 20 µM | Kd (HLA-B*18:01 [4]; [27]): ≥ 20 µM | Kd (HLA-A*68:02 [16]): ≥ 20 µM | Kd (HLA-B*58:01; [27]): ≥ 20 µM | Kd (HLA-B*40:01; [27]): ≥ 20 µM | Kd (HLA-A*31:01; [27]): ≥ 20 µM | Kd (HLA-B*44:02): ≥ 20 µM | Kd (HLA-B*08:01; [28]): ≥ 20 µM | Kd (HLA-B*57:01 [17]): ≥ 20 µM | Kd (HLA-B*15:01 [18]): ≥ 20 µM | Kd (HLA-A*01:01; [27]): ≥ 20 µM | Kd (HLA-B*15:09; [28]): ≥ 20 µM | Kd (HLA-B*07:02; [27]): ≥ 20 µM | Kd (HLA-B*27:05; [27]): ≥ 20 µM | Kd (HLA-A*26:01 [19]; [28]): ≥ 20 µM

Kd (HLA-C*08:02; source organism: Mus musculus): ≥ 20 µM | Kd (HLA-B*46:01; source organism: Mus musculus): ≥ 20 µM | Kd (HLA-A*02:01 [6]; source organism: Mus musculus): ≥ 20 µM | Kd (HLA-B*27:03; source organism: Mus musculus): ≥ 20 µM | Kd (HLA-A*69:01 [20]): ≥ 20 µM | Kd (HLA-B*39:01 [8]; source organism: Mus musculus): ≥ 20 µM | Kd (HLA-B*51:01 [21]; source organism: Mus musculus): ≥ 20 µM | Kd (HLA-B*18:01 [22]; source organism: Mus musculus): ≥ 20 µM | Kd (HLA-B*57:01 [9]; source organism: Mus musculus): ≥ 20 µM | Kd (HLA-A*26:01 [23]; source organism: Mus musculus): ≥ 20 µM
Sequence: LVDENQSWY

Kd (HLA-C*08:02; source organism: Homo sapiens): 0.254 µM | Kd (HLA-A*01:01; source organism: Homo sapiens): 0.002 µM | Kd (HLA-B*46:01; source organism: Homo sapiens): ≥ 20 µM | Kd (HLA-A*02:01 [6]; source organism: Homo sapiens): ≥ 20 µM | Kd (HLA-B*15:17 [7]; source organism: Homo sapiens): ≥ 20 µM | Kd (HLA-B*27:03; source organism: Homo sapiens): ≥ 20 µM | Kd (HLA-B*39:01 [8]; source organism: Homo sapiens): ≥ 20 µM | Kd (HLA-B*51:01 [21]; source organism: Homo sapiens): ≥ 20 µM | Kd (HLA-B*18:01 [22]; source organism: Homo sapiens): ≥ 20 µM | Kd (HLA-B*57:01 [9]; source organism: Homo sapiens): ≥ 20 µM | Kd (HLA-B*15:01 [10]; source organism: Homo sapiens): ≥ 20 µM | Kd (HLA-A*26:01 [23]; source organism: Homo sapiens): ≥ 20 µM
Sequence: WTDLFDNKV

Sequence: TTAKAMEQM
Kd (HLA-A*26:02; source organism: Influenza A virus(A/swine/Shandong/fZC/2003(H9N2))): 0.002 µM | Kd (HLA-A*26:01 [19]; source organism: Influenza A virus (A/shorebird/Delaware Bay/277/2000(H9N7))): 0.0489 µM
